According to the supplement of paper PMC9112550, “Optimization of the antimicrobial peptide Bac7 by deep mutational scanning” (BMC Biology, 2022):

Test system: Escherichia coli TOP10
Test: shrunken log2 fold change of peptide-encoding DNA abundance (4.5 h post-induction vs induction); higher = less antimicrobial activity (less host growth inhibition)
Conditions: time post-induction: 4.5 h; library: site-saturation at positions 5, 18, 19, 20
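Also: peptides expressed intracellularly from a pBAD plasmid library in pooled LB shake-flask culture, induced with 0.3% L-arabinose, DNA abundance read by NGS, three biological replicates, DESeq2 with apeglm shrinkage.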

Sequence	shrunken log2 fold change
RRIRDRPPRLPRPRPRPRSFPRP	0.429
RRIRDRPPRLPRPRPRPRSWPRP	0.131
RRIRDRPPRLPRPRPRPRTMPRP	-0.0423
RRIRDRPPRLPRPRPRPRTRPRP	0.0925
RRIRDRPPRLPRPRPRPRVHPRP	-0.0969
RRIRDRPPRLPRPRPRPRWDPRP	0.196
RRIRDRPPRLPRPRPRPRWIPRP	-0.376
RRIRDRPPRLPRPRPRPRWQPRP	0.0899
RRIRDRPPRLPRPRPRPRYRPRP	-0.101
RRIRDRPPRLPRPRPRPRYVPRP	-0.0272
RRIRDRPPRLPRPRPRPSAAPRP	1.02
RRIRDRPPRLPRPRPRPSAVPRP	0.291
RRIRDRPPRLPRPRPRPSDNPRP	-0.0807
RRIRDRPPRLPRPRPRPSESPRP	-0.000946
RRIRDRPPRLPRPRPRPSGWPRP	0.558
RRIRDRPPRLPRPRPRPSHAPRP	0.0738
RRIRDRPPRLPRPRPRPSMQPRP	-0.157
RRIRDRPPRLPRPRPRPSQFPRP	-0.181
RRIRDRPPRLPRPRPRPSQVPRP	-0.426
RRIRDRPPRLPRPRPRPSRDPRP	0.00173
RRIRDRPPRLPRPRPRPSRKPRP	-0.0764
RRIRDRPPRLPRPRPRPSRRPRP	0.146

Sequence	shrunken log2 fold change
RRIRDRPPRLPRPRPRPSSNPRP	-0.148
RRIRDRPPRLPRPRPRPSSTPRP	0.00883
RRIRDRPPRLPRPRPRPSSWPRP	-0.0298
RRIRDRPPRLPRPRPRPSTGPRP	-0.313
RRIRDRPPRLPRPRPRPSVAPRP	0.233
RRIRDRPPRLPRPRPRPSVWPRP	0.404
RRIRDRPPRLPRPRPRPSWFPRP	-0.192
RRIRDRPPRLPRPRPRPSWKPRP	-0.015
RRIRDRPPRLPRPRPRPSWYPRP	0.0397
RRIRDRPPRLPRPRPRPSYAPRP	-0.0918
RRIRDRPPRLPRPRPRPSYYPRP	-0.0757
RRIRDRPPRLPRPRPRPTAAPRP	0.457
RRIRDRPPRLPRPRPRPTAKPRP	-0.00144
RRIRDRPPRLPRPRPRPTANPRP	0.877
RRIRDRPPRLPRPRPRPTCFPRP	0.0704
RRIRDRPPRLPRPRPRPTDMPRP	0.284
RRIRDRPPRLPRPRPRPTDWPRP	0.516
RRIRDRPPRLPRPRPRPTDYPRP	-0.0921
RRIRDRPPRLPRPRPRPTEHPRP	-0.109
RRIRDRPPRLPRPRPRPTEMPRP	0.367
RRIRDRPPRLPRPRPRPTFNPRP	-0.0925
RRIRDRPPRLPRPRPRPTHHPRP	0.224

Sequence	shrunken log2 fold change
RRIRDRPPRLPRPRPRPTHPPRP	0.263
RRIRDRPPRLPRPRPRPTHYPRP	-0.103
RRIRDRPPRLPRPRPRPTIGPRP	-0.0292
RRIRDRPPRLPRPRPRPTKIPRP	0.0599
RRIRDRPPRLPRPRPRPTKPPRP	-0.23
RRIRDRPPRLPRPRPRPTLAPRP	0.933
RRIRDRPPRLPRPRPRPTLCPRP	0.33
RRIRDRPPRLPRPRPRPTMEPRP	0.335
RRIRDRPPRLPRPRPRPTMPPRP	-0.121
RRIRDRPPRLPRPRPRPTNAPRP	0.182
RRIRDRPPRLPRPRPRPTNPPRP	-0.417
RRIRDRPPRLPRPRPRPTNSPRP	0.115
RRIRDRPPRLPRPRPRPTPDPRP	0.536
RRIRDRPPRLPRPRPRPTQEPRP	0.604
RRIRDRPPRLPRPRPRPTQGPRP	0.797
RRIRDRPPRLPRPRPRPTQKPRP	0.268
RRIRDRPPRLPRPRPRPTSNPRP	0.24
RRIRDRPPRLPRPRPRPTSRPRP	0.208
RRIRDRPPRLPRPRPRPTSSPRP	0.058
RRIRDRPPRLPRPRPRPTTIPRP	-0.121
RRIRDRPPRLPRPRPRPTTMPRP	0.0275
RRIRDRPPRLPRPRPRPTTVPRP	0.258

Sequence	shrunken log2 fold change
RRIRDRPPRLPRPRPRPTVRPRP	0.0184
RRIRDRPPRLPRPRPRPTWLPRP	0.909
RRIRDRPPRLPRPRPRPVCMPRP	0.219
RRIRDRPPRLPRPRPRPVCPPRP	-0.153
RRIRDRPPRLPRPRPRPVEFPRP	-0.0374
RRIRDRPPRLPRPRPRPVHCPRP	-0.0301
RRIRDRPPRLPRPRPRPVIYPRP	0.011
RRIRDRPPRLPRPRPRPVKMPRP	-0.0606
RRIRDRPPRLPRPRPRPVMEPRP	0.532
RRIRDRPPRLPRPRPRPVMIPRP	0.0644
RRIRDRPPRLPRPRPRPVNQPRP	0.0383
RRIRDRPPRLPRPRPRPVPWPRP	0.189
RRIRDRPPRLPRPRPRPVRDPRP	0.203
RRIRDRPPRLPRPRPRPVSGPRP	0.088
RRIRDRPPRLPRPRPRPVSVPRP	-0.0329
RRIRDRPPRLPRPRPRPVTEPRP	0.0911
RRIRDRPPRLPRPRPRPVWCPRP	0.162
RRIRDRPPRLPRPRPRPVYVPRP	-0.563
RRIRDRPPRLPRPRPRPWACPRP	0.0329
RRIRDRPPRLPRPRPRPWARPRP	-0.0626
RRIRDRPPRLPRPRPRPWCRPRP	0.0772
RRIRDRPPRLPRPRPRPWDSPRP	-0.000687

Sequence	shrunken log2 fold change
RRIRDRPPRLPRPRPRPWFAPRP	-0.0921
RRIRDRPPRLPRPRPRPWGAPRP	0.305
RRIRDRPPRLPRPRPRPWMCPRP	-0.0722
RRIRDRPPRLPRPRPRPWMSPRP	-0.376
RRIRDRPPRLPRPRPRPWNEPRP	-0.195
RRIRDRPPRLPRPRPRPWPEPRP	-0.0683
RRIRDRPPRLPRPRPRPWPLPRP	0.00172
RRIRDRPPRLPRPRPRPWPVPRP	0.531
RRIRDRPPRLPRPRPRPWSEPRP	-0.228
RRIRDRPPRLPRPRPRPWSVPRP	0.0902
RRIRDRPPRLPRPRPRPWTAPRP	-0.0482
RRIRDRPPRLPRPRPRPWTEPRP	0.0384
RRIRDRPPRLPRPRPRPWTGPRP	-0.118
RRIRDRPPRLPRPRPRPWVAPRP	-0.0114
RRIRDRPPRLPRPRPRPWWIPRP	-0.0075
RRIRDRPPRLPRPRPRPWYSPRP	-0.0808
RRIRDRPPRLPRPRPRPYATPRP	0.0348
RRIRDRPPRLPRPRPRPYCEPRP	-0.42
RRIRDRPPRLPRPRPRPYCQPRP	-0.226
RRIRDRPPRLPRPRPRPYFFPRP	-0.287
RRIRDRPPRLPRPRPRPYFLPRP	-0.49
